This is an account of results in US6207816.

pIC50, pKd, pKi: −log10 of the molar value.

The pKd is −log10 of the Kd, conventionally taken in molar units. For orientation: pIC50 means the IC50 on a negative log10 scale, so that one unit is a factor of ten. What is called pKi is the Ki on a negative log10 scale, so that one unit is a factor of ten. High values mean a small Ki, low ones a large Ki.

The target of data set [1] is T1, KGF (hKGF) (Homo sapiens) (UniProt P21781).
T1 sequence: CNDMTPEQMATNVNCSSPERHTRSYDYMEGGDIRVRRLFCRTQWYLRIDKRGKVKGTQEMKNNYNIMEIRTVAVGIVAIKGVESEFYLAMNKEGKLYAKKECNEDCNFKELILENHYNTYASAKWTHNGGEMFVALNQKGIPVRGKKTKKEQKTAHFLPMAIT
As to the kind of experiment: filter. The conditions noted are these: 2'-F pyrimidines.

In data set [2] the target is T1, KGF (hKGF) (Homo sapiens). As to the kind of experiment: competition. The conditions noted are these: 2'-F pyrimidines; for pIC50: PC-3 assay.

“GGGAGGACGAUGCGGCAANNNNNNNCUCUCUCCUGGCGUUCCGCAACCCGCCCCCAGACGACUCGCCCGA [19F]” gave a pKd in data set [1] (second column 0.94-2.57) of 8.82. In the case of “GGGAGGACGAUGCGGGAAUUAACAGGGCCAGAAUUCUCAUCUNNCUUCCCGUGACCCAGACGACUCGCCCGA [12F]”, in data set [1] (DPBS, 37 C), the pKd was 8.86. Sequence “GGGAGGACGAUGCGGGAAUUCCCAGCGCUUGACUGAUACAAACNUUCCCGUGCCGCAGACGACUCGCCCGA [16F]” had a pKd in data set [1] (biphasic, high affinity 49%, Kd2 3.39 nM) of 9.08. With “GGGAGGACGAUGCGGGGACAAWYAGCGGUGUCUUUUCAUUUNKAUCCUCCGACRUCCCAGACGACUCGCCCGA [56F (K56F)]”, the negative-log IC50 (pIC50) in data set [2] was 9.00. Turning to “GGGAGGACGAUGCGGGGACAAWYAGCGGUGUCUUUUCAUUUNKAUCCUCCGACRUCCCAGACGACUCGCCCGA [56F]”, the pKd in data set [1] (biphasic, 32% high affinity, Kd2 3.00 nM) was 10.15.

For “GGGAGGACGAUGCGGNGACUGAUUUUUCCUUGNBCAGUGUAAUUUCCUGGCUGCCCCAGACGACUCGCCCGA [38F (K38F)]”, the pIC50 in data set [2] is 9.22. This sequence also showed a pKi in data set [2] (PC-3 cells, 20 nM on NIH3T3/FGFR-2) of 9.66. “GGGAGGACGAUGCGGNGACUGAUUUUUCCUUGNBCAGUGUAAUUUCCUGGCUGCCCCAGACGACUCGCCCGA [38F]” showed a pKd in data set [1] (DPBS, 37 C) of 9.48.
